The values that follow come from US20180171024A1 (ADICET BIO, published 2018).

Assay [1] has as its target T1, HLA-A2/MART1(26) on T2 cells (human).
T1 construct: whole, on cells
Nature of the assay: flow cytometry, T2 cells loaded with MART1 peptide. (In general: In flow cytometry, cells or beads pass a laser one at a time.)

Assay [2] has as its target T2, HLA-A2/MAGE-A4 230-239 complex on cells (human).
T2 construct: whole, on cells; also called MAGE-A4 peptide; HLA-A2+/MAGE-A4+ cells
Nature of the assay: flow cytometry, peptide-loaded T2 cells (10^-5 M).

Assay [3] has as its target T3, single-chain recombinant HLA-A2/Tyrosinase369-377 complex (human).
T3 construct: also called scHLA-A2/Tyrosinase; HLA-A2/TyrD369-377
Nature of the assay: SPR, IgG captured by anti-mouse IgG, analyte scHLA-A2/Tyrosinase (EM3-TyrD). In general terms: SPR reads the build-up and loss of mass on a sensor chip optically.
Protocol: (§1) Immobilization of IgG TCR-like antibody was performed on a GLM (General Layer Medium) chip (Bio-Rad Laboratories, Hercules, Calif., USA) at 25° C. in the vertical orientation and the continuous running buffer was PBST (10 mM Na-phosphate, 150 mM NaCl, and 0.005% Tween 20, pH 7.4). Five channels were activated with 50 μl of a mixture of 0.04 M N-ethyl-N′-(3-dimethylaminopropyl) carbodiimide (EDC) and 0.01 M sulfo-N-hydroxysuccinimide (Sulfo-NHS) at a flow rate of 30 μl/min. The anti-mouse or human IgG/NeutrAvidin was diluted in 10 mM sodium acetate buffer pH 4.5 to a final concentration of 25 μg/ml and 150 μl were injected followed by an injection of 150 μl of 1 M ethanolamine-HCl pH 8.5. The IgG TCRL antibody/purified biotinylated single-chain recombinant HLA-A2/Tyrosinase/WT1/MAGE-A4/MAGE-A9/PAP complex ligand was diluted in PBST to 5-10 μg/ml and 90 μl were injected in the vertical orientation with a flow rate of 30 μl/min. The sixth channel remained empty to serve as a reference. […] Running buffer was injected simultaneously in the sixth channel for double referencing to correct for loss of the captured antibodies from the chip sensor surface during the experiment. All binding sensorgrams were collected, processed and analyzed using the integrated ProteOn Manager (Bio-Rad Laboratories, Hercules, USA) software. […]

Assay [4] concerns the target T3, single-chain recombinant …. Nature of the assay: SPR (ProteOn), IgG captured via anti-mouse IgG, scHLA-A2/Tyrosinase as analyte; apparent affinity.
Protocol: as §1
In assay [5] the target is T2, HLA-A2/MAGE-A4 230-239 complex on cells. Nature of the assay: flow cytometry, peptide-loaded T2 cells (10^-5 M). This is another data set of the same source.
A further assay concerns the target T4, PAP112-A9 (Homo sapiens).
T4 construct: cell surface;cell surface complex; also called PAP A9; HLA-A2/PAP A9 on T2 cells
Nature of the assay: alanine scan, flow cytometry, peptide-loaded T2 cells (10^-5 M), antibody 10 µg/ml.

Another assay addresses T5, PAP112-A1.
T5 construct: also called PAP A1; HLA-A2/PAP A1 on T2 cells
The description is as above.

The target of another assay is T6, MAGE-A4-A1.
T6 construct: also called HLA-A2/MAGE-A4-A1 on T2 cells
The description is as above.

A further assay has as its target T7, MAGE-A4-A3.
T7 construct: also called HLA-A2/MAGE-A4-A3 on T2 cells
The description is as above.

The target of the next assay is T8, MAGE-A4-A8.
T8 construct: also called HLA-A2/MAGE-A4-A8 on T2 cells
The description is as above.

The target of a further assay is T9, MAGE-A4-A10.
T9 construct: also called HLA-A2/MAGE-A4-A10 on T2 cells
The description is as above.

In another assay the target is T10, MAGE-A4-A9.
T10 construct: also called HLA-A2/MAGE-A4-A9 on T2 cells
The description is as above.

Assay [6] addresses T11, single-chain recombinant HLA-A2/MAGE-A4 230-239 complex (human).
T11 construct: also called scHLA-A2/MAGE-A4
In words: SPR (ProteOn); text: IgG captured via anti-mouse IgG, scHLA-A2/MAGE-A4 as analyte (FIG. 54 legend: complex on NeutrAvidin, Fab as analyte).

Assay [7] concerns the target T12, HLA-A2/MAGE-A4-A4 on T2 cells (human).
T12 construct: whole, on cells
In words: flow cytometry (MFI), T2 cells loaded with Ala-mutated peptide.

The target in assay [8] is T13, HLA-A2/MAGE-A4-A2 on T2 cells (human).
T13 construct: whole, on cells
The assay is described as above.

Assay [9] has as its target T14, HLA-A2/MAGE-A4-A7 on T2 cells (human).
T14 construct: whole, on cells
Described as above.

The target in assay [10] is T15, HLA-A2/MAGE-A4-A5 on T2 cells (human).
T15 construct: whole, on cells
The assay is described as above.

The target in assay [11] is T16, HLA-A2/MAGE-A4-A6 on T2 cells (human).
T16 construct: whole, on cells
The assay is described as above.

Assay [12] addresses T17, single-chain recombinant HLA-A2/WT1 126-134 complex (human).
T17 construct: also called scHLA-A2/WT1; MHC-WT1 peptide complex
Nature of the assay: SPR, B47B6 IgG captured via anti-mouse IgG, analyte scHLA-A2/WT1.
Protocol: Purified IgGs were immobilized indirectly to the SPR sensor chip with anti-mouse. Analyte was purified recombinant single-chain HLA-A2/WT1 complexes generated by in vitro refolding of E. coli expressed scHLA-A2 complexes.
Immobilization of IgG TCR-like antibody was performed on a GLM (General Layer Medium) chip (Bio-Rad Laboratories, Hercules, Calif., USA) at 25° C. in the vertical orientation and the continuous running buffer was PBST (10 mM Na-phosphate, 150 mM NaCl, and 0.005% Tween 20, pH 7.4). Five channels were activated with 50 μl of a mixture of 0.04 M N-ethyl-N′-(3-dimethylaminopropyl) carbodiimide (EDC) and 0.01 M sulfo-N-hydroxysuccinimide (Sulfo-NHS) at a flow rate of 30 μl/min. The anti-mouse or human IgG/NeutrAvidin was diluted in 10 mM sodium acetate buffer pH 4.5 to a final concentration of 25 μg/ml and 150 μl were injected followed by an injection of 150 μl of 1 M ethanolamine-HCl pH 8.5. The IgG TCRL antibody/purified biotinylated single-chain recombinant HLA-A2/Tyrosinase/WT1/MAGE-A4/MAGE-A9/PAP complex ligand was diluted in PBST to 5-10 μg/ml and 90 μl were injected in the vertical orientation with a flow rate of 30 μl/min. The sixth channel remained empty to serve as a reference. […] All binding sensorgrams were collected, processed and analyzed using the integrated ProteOn Manager (Bio-Rad Laboratories, Hercules, USA) software. […]

Assay [13] addresses T1, HLA-A2/MART1(26) on T2 cells. Nature of the assay: flow cytometry, peptide-loaded T2 cells (10^-5 M).
Assay [14] addresses T2, HLA-A2/MAGE-A4 230-239 complex on cells. In words: flow cytometry, T2 cells loaded with 10^-4 M peptide.
Assay [15] deals with T17, single-chain recombinant HLA-A2/WT1 …. Nature of the assay: SPR (ProteOn), IgG captured via anti-mouse IgG, scHLA-A2/WT1 as analyte.
Protocol: as §1

Protocol for MAGE-A4-A10: (§2) FIG. 55: Epitope specificity determination by Alanine scanning mutagenesis. The mutant MAGE-A4 peptides with alanine substitutions at positions 1, 2, 3, 4, 5, 6, 7, 8 and 9 were synthesized. […] The native and mutant MAGE-A4 peptides were loaded onto T2 cells APCs at a concentration of 10⁻⁵ M for 12 hrs at 37° C. […] MFI values for cells loaded with mutant and wild type peptides were compared. The relative effect of each Ala substitution was expressed as percentage of the binding to native wild-type peptide.
Protocol for MAGE-A4-A3: as §2
Protocol for MAGE-A4-A8: as §2
Protocol for MAGE-A4-A9: as §2

B1: 906-11-D11 TCR-like antibody (IgG) (antibody, V domains shown)
VH: not shown
VL: DIQMTQSPSSLSASLGGKVTITCKASQDIHNYIAWYQHKPVKGPRLLIHYTSTLQPGTPSRFSGSGSGRDYSFSISNLEPEDIATYYCLQYDNLWTFGGGTKLEIKR
notes: also called Tyr D11
Take B1: the binding result in assay [1] and in assay [2] was “no binding (tested: 10 µg/ml)” throughout. The results for the Kd in assay [3] and in assay [4] were 4.14 nM and 4.1 nM, respectively.

B2: D10A3 TCR-like antibody (IgG) (antibody, V domains shown)
VH: EVQLQQFGTELVKPGASVKISCKASGYTFTDYNMDWVKQSHGKSLEWIGDINPNYDTTTYNQKFKGKATLTVDKSSSTAYMELRSLTSEDTAVFYCARRNYGNYVGFDFWGQGTTLTVSS
VL: NIVLTQTPKFLLVSAGDRVSITCKASQRVNNDVAWYQQKPGQSPKLLIYYASNRYTGVPDRFTGSGYGTDFTFTISTVQAEDLAVYFCQQDYSSPFTFGSGTKLEIKR
notes: also called PAP D10A3
Consider B2, for which the binding result in assay [5] is “no binding (tested: 10 µg/ml)”. Also, the “% of PAP112 binding” value was 1% with PAP112-A9 and 83% with PAP112-A1.

B3: C106B9 TCR-like antibody (IgG) (antibody, V domains shown)
VH: QVQLQQSGGEVMKPGASVKLSCKATGYTFTGYWIEWIKQRPGHGLEWIGEILPGSGGTNYNEKFKGKATFTAHTSSNTAYMQLSSLTTEDSAIYYCARDSNSFTYWGQGTLVTVSS
VL: QIVLTQSPAIMSASPGEKVTITCSVSSSVDYIHWFQQKPGTSPKFWIYSTSILASGVPARFSGSGSGTSYSLTISRMEAEDAATYYCQQRSSYPPTFGSGTKLEIKR
notes: also called MAGE-A4 C106B9
On to B3, for which the “% of MAGE-A4 binding” value with MAGE-A4-A1 turned out to be 106%; in the assay with MAGE-A4-A3, 1%; with MAGE-A4-A8, 168%; in the assay with MAGE-A4-A10, 4%; with MAGE-A4-A9 it was 79%. Besides, the Kd in assay [6] turned out to be 8.8 nM. Moreover, the “percent decrease in binding vs wild-type peptide” value in assay [7] is 90%; in assay [8], 33%; in assay [9] it was 90%; in assay [10] it was 90%; in assay [11] it was 90%.

B4: 905-2-D7 TCR-like antibody (IgG) (antibody, V domains shown)
VH: QVQLKESGPGLVAPSQSLSITCTVSGFSLTSYGVHWVRQPPGKGLEWLGVIWAGGTTNYNSALMSRLSISRDNSKSQVFLEMNSLQTDDTAIYYCARDGHFHFDFWGQGTTLTVSS
VL: DIQMTQSPASLSVSVGETVTITCRASDIIYSNLAWYQQKQGKSPQLLVYAATNLAAGVPSRFSGSGSGTQYSLKINSLQSEDFGTYYCQHFWGSSISFGSGTKLEIKR
notes: also called Tyr D7
Consider B4, for which the binding result in [1] and in assay [2] was “no binding (tested: 10 µg/ml)” throughout.

B5: B47B6 TCR-like antibody (IgG) (antibody, V domains shown)
VH: EVQLVESGGGLVKPGGSLKLSCAASGFVFSSYDMSWVRQAQEKRLEWVAYMSSGGGTYYPDTVKGRFTISRDNAKNTLHLQMSSLKSEDTAMYYCARHDEITNFDYWGQGTTLTVSS
VL: DIVLTQSPATLSVSPGDSVSLSCRASQSISNSLHWYQQKSHESPRLLIKYASQSISGIPSRFSGSGSGTDFTLSINSVETEDFGMYFCQQSYSWPLTFGAGSKLELKR
notes: also called WT1 B47B6
As to B5, the results for the Kd in assay [12] and in assay [15] were 4.37 nM and 4.4 nM, respectively. In addition, the binding result in assay [13] is “no binding (tested: 10 µg/ml)”; in assay [14], “no binding”.
